In publication PMC5750218, “Protein-inspired antibiotics active against vancomycin- and daptomycin-resistant bacteria” (Nature Communications, 2018):
≈ marks a conversion by molar mass, not a printed value. Like-named read-outs stand apart in the source and are kept apart here.

How the values were obtained:
[1] = In vivo pharmacokinetics in mice; details: mouse; for level at […]: 0.250 h; for level at 0.5 h: 0.500 h; for MRT inf: read-out: MRT0-inf; for MRT last: read-out: MRT0-last
Procedure: Performed by WuXi AppTec (Shanghai) Co., Ltd. Seven to 9-week-old male CD1 mice (SLAC Laboratory Animal Co. Ltd., Shanghai, China) weighing 25–35 g were acclimated for approximate 3 days before being used in the study. Animals are group housed during acclimation and in-life study in compliance with the National Research Council 'Guide for the Care and Use of Laboratory Animals.' The animal room environment is controlled (target conditions: temperature 18 to 26 °C, relative humidity 30–70%, 12 h artificial light and 12 h dark) with temperature and relative humidity monitored daily. Animals were deprived of food for approximately 16 h before formulation administration then allowed access to Certified Rodent Diet (Catalogue # M-01F, Shanghai SLAC Laboratory Animal Co. Ltd.) ad libitum 4 h post dosing. Water was autoclaved before being provided to the animals ad libitum. Formulations of compounds were prepared on the morning of the dosing day. The formulation for the IV group was filtered with filter of 0.22 μm before being dosed to animals. After dose formulation preparation, duplicate 50 μL aliquots were removed from each dose formulation for use in dose validation. For each compound studied, three mice were dosed intravenously (IV) administered to each animal via tail vein per facility SOPs using test article formulated in deionised water at 1 mg mL^−1 with a dose volume of 2 mg mL^−1, providing a dose of 2 mg mL^−1 (based on free base concentration). An additional three mice were dosed subcutaneously (SC) administered to each animal via subcutaneous bolus on each animals’ back per facility SOPs using test article formulated in deionised water at 2 mg mL^−1 with a dose volume of 5 mg mL^−1, providing a dose of 10 mg mL^−1. All animals were killed at the last study time point (100% CO2 was introduced into the animal box).
Plasma samples were collected as the following target times after each dose administration: IV Sampling Time points (hours post dosing): 0, 0.083, 0.25, 0.5, 1, 2, 4, 8 and 24. SC Sampling Time points (hours post dosing): 0, 0.25, 0.5, 1, 2, 4, 8 and 24. Approximately 30 μL blood was obtained via submandibular or saphenous vein for the first several time points. For the last time point, samples were collected via cardiac puncture while the mouse was under anaesthesia. All blood samples were transferred into pre-chilled plastic microcentrifuge tubes containing 2 μL of ethylenediaminetetraacetic acid dipotassium salt (K2-EDTA) (0.5 M) as anticoagulant and placed on wet ice until centrifugation. Harvested blood samples were centrifuged within 30 min of collection at 7000 rpm (8546 × g) 4 °C for about 10 min. After centrifugation, plasma was transferred into another pre-labelled and pre-chilled polypropylene microcentrifuge tubes, then quick-frozen over dry ice and stored at −70 ± 10 °C until LC/MSMS analysis.
LC-MS/MS methods for the quantitative determination of the test article in mouse plasma were developed with an internal standard. Benchtop stability of the compound in mouse plasma was determined at mid QC concentrations in triplicate at 0, 2 h at room temperature. The stability was determined using mean peak area ratio of T2/T0 sample. If the mean peak area ratio is within 80%~120%, the test article in the plasma is considered stable for 2 h at room temperature. […] A set of QC samples consists of three concentration levels (low, middle and high). The sample analysis was performed concurrently with a set of calibration standards and two sets of QC samples using the LC-MS/MS method.
Plasma concentration vs. time data from individual animals was analysed by WinNonLin non-compartmental model (Phoenix WinNonlin 6.2.1, Pharsight, Mountain View, CA). Pharmacokinetic parameter C 0, T ½, CL, Vdss, C max, T max, AUC0-last, AUC0-inf, %F, MRT0-last, MRT0-inf and graphs of plasma concentration vs. time profile were derived.

[2] = 37 °C, 20 µM
[3] = tested on: Bacillus subtilis ATCC 6633; assay: microbe, parasite or virus in culture; type: cell-based; details: for Ac2Kaa concentration required to neutralise MIC activity / MIC: ATCC 6633, 48 h
Haemolysis assay = type: cell-based; details: human; for hemolysis at 3 h: whole blood
S. aureus ATCC 43300 = assay: Membrane depolarisation assay (diSC3(5)); type: cell-based, Staphylococcus aureus; details: 16 µg mL^−1, 30 min, MRSA ATCC 43300
Procedure: Antibiotic-induced bacterial cytoplasmic membrane depolarisation was determined using the fluorescent dye 3,3-dipropylthiacarbocyanine diSC3(5) (Sigma Aldrich, Australia) as previously described. Briefly, early exponential phase cells were pelleted and washed twice in 10 mM HEPES buffer (pH 7.4) containing 50 µg mL^−1 of CaCl2 and 5 mM Glucose, and then re-suspended in the same buffer (2 × 10^8 CFU mL^−1). diSC3(5) was added to a final concentration of 1.5 µM and incubated at room temperature in the dark to enable dye uptake and fluorescence quenching. After 30 min, cells were diluted 50-fold in assay buffer and 45 µL of cells were added to a 384-well black walled polystyrene plate (Corning, CLS3573) (Note: NBS plates were not employed, and no polysorbate-80 was added to avoid potential effects on membrane permeability, or interference with fluorescence as previously reported. The MICs of compounds in polystyrene plates are listed in Supplementary Table 12). Background data was collected before adding compounds using a Tecan Infinite® m1000 Pro Multi-mode reader (excitation/emission 612/665 nm) to ensure fluorescence quenching. Compounds were added to a final concentration of 16 µg mL^−1 and fluorescence was monitored for 30 min. Data were corrected by subtraction of background response (diSC3(5) in the presence of untreated cells, no compound). […] Each sample was tested in quadruplicate and independent assays were performed twice showing similar results. Data were analysed and presented using Prism software.

[4] = tested on: Methicillin-sensitive S. aureus ATCC 29213; assay: microbe, parasite or virus in culture; type: cell-based, Staphylococcus aureus; details: for MIC: Staphylococcus aureus, ATCC 29213 / MSSA
Procedure: Antimicrobial activity of compounds was tested against a number of bacterial strains by broth microdilution (BMD) assay with MIC determination, including S. aureus (MSSA ATCC® 29213™, MRSA ATCC® 43300™, VISA NARSA NRS1, VISA NARSA NRS4), Streptococcus pneumoniae (MDR ATCC® 700677™) and Enterococcus faecium (MDR VanA ATCC® 51559™). ATCC strains were sourced from the American Type Culture Collection and NRS strains from NARSA (Network on Antimicrobial Resistance in S. aureus) via BEI Resources (www.beiresources.org). All compounds were prepared to 160 µg mL^−1 solution in water from a stock solution of 1 mM concentration.
[…] […] Standards ranged from 64 to 0.03 µg mL^−1 and compounds from 8 to 0.003 µg mL^−1 with final assay volumes of 100 µL per well. Gram-positive bacteria were cultured in Mueller Hinton broth (MHB) (Bactolaboratories, Cat. no. 211443) at 37 °C overnight. A sample of each culture was then diluted 40-fold in fresh MHB and incubated at 37 °C for 2–3 h. The resultant mid-log phase cultures were added to the compound-containing 96-well plates to give a final cell density of 5 × 10^5 colony forming unit (CFU) mL^−1. All the plates were covered and incubated at 37 °C for 24 h. MICs were the lowest concentration showing no visible growth.

[5] = male, CD1, plasma, 2 mg/kg IV, read-out: Plasma concentration, Mean IV
[6] = male, CD1, plasma, 10 mg/kg SC, read-out: Plasma concentration, Mean SC
[7] = polystyrene plate with 0.002% polysorbate-80

CCCCCCCCCCC(=O)N[C@@H](CCCCN)C(=O)N[C@@H](CCCCN)C(=O)N[C@@H](CCCCN)C(=O)N[C@@H](CCCCNC(=O)[C@H]1NC(=O)[C@H]2NC(=O)[C@H](NC(=O)[C@@H]3NC(=O)[C@H](CC(N)=O)NC(=O)[C@H](NC(=O)[C@@H](CC(C)C)NC)[C@H](O)c4ccc(c(Cl)c4)Oc4cc3cc(c4O[C@@H]3O[C@H](CO)[C@@H](O)[C@H](O)[C@H]3O[C@H]3C[C@](C)(N)[C@H](O)[C@H](C)O3)Oc3ccc(cc3Cl)[C@H]2O)c2ccc(O)c(c2)-c2c(O)cc(O)cc21)C(=O)O [Compound 18, nC10CO-KKK-K(Vancomycin)-OH]
level at 5 min ([1]; male, CD1, plasma, 2 mg/kg IV, 5 min, n=3, read-out: Plasma concentration, Mean IV): 5440 ng/mL | level at […] [1, 5]: 3570 ng/mL | level at 0.5 h [1, 5]: 2250 ng/mL | level at 1 h [1, 5]: 1500 ng/mL | level at 2 h [1, 5]: 447 ng/mL | level at 4 h [1, 5]: 69.6 ng/mL | level at […] ([1]; male, CD1, plasma, 10 mg/kg SC, n=3, read-out: Plasma concentration, Mean SC): 2360 ng/mL | level at 0.5 h [1, 6]: 4450 ng/mL | level at 1 h [1, 6]: 6220 ng/mL | level at 2 h [1, 6]: 4520 ng/mL | level at 4 h [1, 6]: 1260 ng/mL | level at 8 h ([1]; male, CD1, plasma, 10 mg/kg SC, 8.00 h, read-out: Plasma concentration, Mean SC): 113 ng/mL | AUC0-inf/AUC0-last ([1]; IV 2 mg kg-1): 101% | AUC0-inf/AUC0-last ([1]; SC 10 mg kg-1): 101% | Tlast ([1]; SC 10 mg kg-1): 8 h | bioavailability ([1]; plasma, subcutaneous, SC 10 mg kg-1 vs IV 2 mg kg-1): 77% | AUC(0-inf) ([1]; plasma, IV 2 mg kg-1): 4240 ng·h/mL | AUC(0-t) ([1]; plasma, IV 2 mg kg-1): 4210 ng·h/mL | C0 ([1]; plasma, IV 2 mg kg-1): 6740 ng/mL | clearance ([1]; plasma, IV 2 mg kg-1): 8.11 mL/min/kg | half-life ([1]; plasma, IV 2 mg kg-1): 46.2 min | MRT inf ([1]; plasma, IV 2 mg kg-1): 0.9 h | MRT last ([1]; plasma, IV 2 mg kg-1): 0.9 h | Vd ([1]; plasma, IV 2 mg kg-1, read-out: Vdss): 0.43 L/kg | AUC(0-inf) ([1]; plasma, SC 10 mg kg-1): 16300 ng·h/mL | AUC(0-t) ([1]; plasma, SC 10 mg kg-1): 16100 ng·h/mL | Cmax ([1]; plasma, SC 10 mg kg-1): 6290 ng/mL | Tmax ([1]; plasma, SC 10 mg kg-1): 49.8 min | half-life ([1]; plasma, SC 10 mg kg-1): 66 min | MRT inf ([1]; plasma, SC 10 mg kg-1): 2 h | MRT last ([1]; plasma, SC 10 mg kg-1): 1.9 h | % compound remaining after incubation in 50% human plasma, 0h [2]: 100% | Ac2Kaa concentration required to neutralise MIC activity [3]: 100 µg/mL | MIC [3]: ≤ 4 ng/mL | hemolysis at 3 h (Haemolysis assay; 100 µg mL-1): 1.4% | hemolysis at 3 h (Haemolysis assay; 1600 µg mL-1): 1.2%

CCCCCCCCCC(=O)N[C@@H](Cc1c[nH]c2ccccc12)C(=O)N[C@H](CC(N)=O)C(=O)N[C@@H](CC(=O)O)C(=O)N[C@@H]1C(=O)NCC(=O)N[C@@H](CCCN)C(=O)N[C@@H](CC(=O)O)C(=O)N[C@H](C)C(=O)N[C@@H](CC(=O)O)C(=O)NCC(=O)N[C@H](CO)C(=O)N[C@@H]([C@H](C)CC(=O)O)C(=O)N[C@@H](CC(=O)c2ccccc2N)C(=O)O[C@@H]1C [Compound 4, Daptomycin]
Dissipation of membrane potential (diSC3(5) fluorescence) (S. aureus ATCC 43300): no effect | MIC ([4]; S. aureus ATCC 29213, read-out: MIC MSSA): 1 µg/mL (≈ 0.617 µM) | MIC ([4]; non-binding surface plate, read-out: MIC S. aureus ATCC29213 MSSA, NBS): 0.5 to 1 µg/mL (≈ 0.309 to 0.617 µM) | MIC ([4]; polypropylene plate, read-out: MIC S. aureus ATCC29213 MSSA, PP): 1 µg/mL (≈ 0.617 µM) | MIC ([4]; polystyrene plate with 0.002% polysorbate-80, read-out: MIC S. aureus ATCC29213 MSSA, PS+P-80): 1 µg/mL (≈ 0.617 µM) | MIC ([4]; polystyrene plate, no polysorbate-80, read-out: MIC S. aureus ATCC29213 MSSA, PS): 1 µg/mL (≈ 0.617 µM) | hemolysis at 3 h, 25 µg mL-1 (Haemolysis assay; % Human Whole Blood Haemolysis): 0% | hemolysis at 3 h, 50 µg mL-1 (Haemolysis assay; % Human Whole Blood Haemolysis): 0.4% | hemolysis at 3 h, 100 µg mL-1 (Haemolysis assay; % Human Whole Blood Haemolysis): 0% | hemolysis at 3 h, 200 µg mL-1 (Haemolysis assay; % Human Whole Blood Haemolysis): 0.3% | hemolysis at 3 h, 400 µg mL-1 (Haemolysis assay; % Human Whole Blood Haemolysis): 0.9% | hemolysis at 3 h, 800 µg mL-1 (Haemolysis assay; % Human Whole Blood Haemolysis): 0.3% | hemolysis at 3 h, 1600 µg mL-1 (Haemolysis assay; % Human Whole Blood Haemolysis): 1.6%

CCCCCCCCCCCCCC(=O)N[C@@H](CCCCN)C(=O)N[C@@H](CCCCN)C(=O)N[C@@H](CCCCN)C(=O)N[C@@H](CCCCNC(=O)[C@H]1NC(=O)[C@H]2NC(=O)[C@H](NC(=O)[C@@H]3NC(=O)[C@H](CC(N)=O)NC(=O)[C@H](NC(=O)[C@@H](CC(C)C)NC)[C@H](O)c4ccc(c(Cl)c4)Oc4cc3cc(c4O[C@@H]3O[C@H](CO)[C@@H](O)[C@H](O)[C@H]3O[C@H]3C[C@](C)(N)[C@H](O)[C@H](C)O3)Oc3ccc(cc3Cl)[C@H]2O)c2ccc(O)c(c2)-c2c(O)cc(O)cc21)C(=O)O [Compound 17, nC13CO-KKK-K(Vancomycin)-OH]
% compound remaining after incubation in 50% human plasma, 0h [2]: 100% | MIC S. aureus ATCC29213 MSSA, PP ([4]; ATCC 29213): 1 to 2 µg/mL | MIC S. aureus ATCC29213 MSSA, PS ([4]; ATCC 29213): 1 µg/mL (≈ 0.46 µM) | MIC S. aureus ATCC29213 MSSA, NBS ([4]; non-binding surface plate): ≤ 0.016 µg/mL | MIC S. aureus ATCC29213 MSSA, PS+P-80 [4, 7]: ≤ 0.016 µg/mL | Ac2Kaa concentration required to neutralise MIC activity [3]: 400 µg/mL | MIC [3]: ≤ 4 ng/mL | Molar excess of Ac2Kaa ligand required to antagonise antibacterial activity ([3]; [ligand]/[antibiotic], B. subtilis ATCC 6633, 24 h): 29,472 | hemolysis at 3 h (Haemolysis assay; 25 µg mL-1): 0.15% | hemolysis at 3 h (Haemolysis assay; 50 µg mL-1): 0.75% | hemolysis at 3 h (Haemolysis assay; 100 µg mL-1): 0.65% | hemolysis at 3 h (Haemolysis assay; 200 µg mL-1): 0.85% | hemolysis at 3 h (Haemolysis assay; 400 µg mL-1): 0.5% | hemolysis at 3 h (Haemolysis assay; 800 µg mL-1): 1% | hemolysis at 3 h (Haemolysis assay; 1600 µg mL-1): 1.55%

CN[C@H]1C(=O)N[C@@H]2Cc3ccc(cc3)Oc3cc4cc(c3O[C@@H]3O[C@H](C(=O)O)[C@@H](O)[C@H](O)[C@H]3NC(=O)CCCCCCCCC(C)C)Oc3ccc(cc3Cl)[C@@H](O)[C@@H]3NC(=O)[C@H](NC(=O)[C@@H]4NC(=O)[C@@H](NC2=O)c2cc(cc(O)c2Cl)Oc2cc1ccc2O)c1ccc(O)c(c1)-c1c(O[C@H]2O[C@H](CO)[C@@H](O)[C@H](O)[C@@H]2O)cc(O)cc1[C@@H](C(=O)NCCCN(C)C)NC3=O [Compound 3, Dalbavancin]
Dissipation of membrane potential (diSC3(5) fluorescence) (S. aureus ATCC 43300): no effect | MIC MSSA ([4]; S. aureus ATCC 29213): ≤0.016 µg/mL | MIC S. aureus ATCC29213 MSSA, NBS ([4]; non-binding surface plate): ≤ 0.016 µg/mL | MIC S. aureus ATCC29213 MSSA, PP ([4]; polypropylene plate): 0.125 µg/mL (≈ 0.0688 µM) | MIC S. aureus ATCC29213 MSSA, PS+P-80 [4, 7]: ≤ 0.016 µg/mL | MIC S. aureus ATCC29213 MSSA, PS ([4]; polystyrene plate, no polysorbate-80): 0.25 µg/mL (≈ 0.138 µM)
